Earlier results as cited in article PMC5603210.

Biological target: von Willebrand factor (Homo sapiens) (UniProt P04275)

Kd: 500 pM
Substance: Factor VIII (from UniProt P00451)
